Experiment: yeast display, Sf9 membrane polyspecificity reagent, FACS + sequencing; frameworks hold sequencing errors
How it was run: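 A synthetic nanobody library was expressed on Saccharomyces cerevisiae BJ5465 by galactose induction for 36–48 hours. The library was stained for 1 hour at 4 °C with 10% biotinylated, detergent-solubilized Sf9 membrane reagent and enriched with streptavidin microbeads before FACS. Low and high (top ~1%) gates were set on anti-HA fluorescence for expression and streptavidin fluorescence for reagent binding, and each polyreactivity label reflects the gate of origin.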

Sequence	polyreactivity (PSR sort gate)
QFQLVESGGGLVQAGGSLRLSCAASGRTFSGNTMGWYRQAPGKERELVAAITGRGGSTYYADSVKGRFTISRDNAKNTVYLQMNCLKPEDTAVYYCAALRYTFAGRFDYWGQGTQVTVSS	high polyreactivity
QVQLVESAGGLVQAGGSLRLSCAPSGRIFGRYAMGWYRHAPGKERELVAAISFNGGSTSYADSVNGRFTISRDNAKNTVYLQMNTLKTEYTAVYYCAAKYRGFNYWGQGTQVTVSS	high polyreactivity
QVQLVESGGGLVQAGGSLRLSCAASGITFSPSAMGWCRQAPGKERELVAAITSGGSTNYADSVKGRFTISRDNAKNTVYLQMNSLKPEDTAVYYCAAGRWPAPWYTRNYWGQGTQVTVSS	low polyreactivity
QVQLVESGGGLVQAGGSLRLSCAATGRTFSTNAMGGSRQAPGKERELVAAITSSGGRTYYADSVKGRFTISRDNAKNTVYLQMNSLKPEDTAVYYCAAYPWYYRGYWFGYWGQGTQVTVSS	high polyreactivity
QVKLVESGGGLVQAGGSRRLSCAASGLIFYSYAMGWSRQAPGKERELVAAISSRGGSTYYADSVKGRFTISRDNAKNTVYLQMNSLKPDDTAVYYCNAYFLLPHYDYWGQGTQVTVSS	low polyreactivity
QVQLVESGGGLVQAGGSLRLSCAASGSTIGYYAMGWYRPAPGKERELVAAISWSGGSTYYADSVKGRFTISRDTAKNTVYFQMNSLKPEDTAGYYCAADTYPDYYLVEYYYWGQGTQVTVSS	low polyreactivity
QVQLVESGGGLVQAGGSLRLSCAASGYIFYIYAKGWNRQAPGKERELVAAISYSDGTTYYADSVKGRFTISRDNAKNTVYLQMNSLKAEDTAVYYCAADLWVGLVSLWDGYVEYDYWGQGTQVTVSS	low polyreactivity
QVQLVESGGGLVQAGGSLRLSCAASGRTFKYYAMGWYRQAPGKERELVAGITSGSSTSYADSVKGRFTISRDNAKITVYLQMNSLKPEDTAVYFCAAGIYQYRYDYWGQGTQVTVSS	high polyreactivity
QVQLVESGGVLVQAGGSLRLSCAASGRTFAYNTMGWYRQAPGKEREVVAAITWSGGGTYYADSVKGRFTISRDNAKKTVYLQLNSLKPEDTAVYYCAVEYATPRARFRYYYWGQGTKVTVSS	high polyreactivity
QVQLVESGGGLVQAGGSLRLSSAASGRTFTRYTMGWYRQAPGKERELVAAIRYSGGSTYYADSVKGRFTISRDNAKNTVYLQMNSLKPEDTAVYYCAARSYYYGFLYRYDYWGQGTQVTVSS	low polyreactivity
QVQLVESGGGLVQAGGSLRLSCADSGLTFGRNAMGWYRHAPGKERELVAAITFNGGSTYYADSVKGRFTISRDNAKNTVYLQMNSLKPEDTAVYYCSGRLWRRSRFDYWGQGTQVTVSS	high polyreactivity
QVQLVESGGGLVQAGGSLRLSCAAYGYTFDSYTIGWYRQAPGKERELVAAITRSGSSTYYADSVKGRFTISRDNAKNTVYLQMNSLKPDDTAVYSCAAGWRRADGIEYWYGYWGQGTQVTVSS	high polyreactivity
QVQLVESGAGLVQAGGSLRLSCAASGLTFIYNAMVWYRQAPGKERELVAAISGNGGDTYYADSVKGRFTLSRDNAKNTVYLQMNSLKPEDTAVYYCAADYAYTPITCDEYWGQGTKVTVSS	low polyreactivity
QVQLVESGGGLVQAGGSLRLSCAASGYIFRWYAMGWYRQAPGKERELVARITNGARTYYADSVKGRFTISRDNAKNTVYLQMNSLKPEDTAVYYCAATVPPTYRRYYYWGQGTQVTVSS	high polyreactivity
QVQLVESGGGLVQAGGSLRLSCAASGSIFNYYAMGWYRQAPGKERELVATITTRDGTTYYADSVKGRFTISRDNAKNTVYLQMNSLKPEDTAVYYCAKSWWPSRRTYSFYYWGQGTQVTVSS	high polyreactivity
QVQLVESGGGIVQAGGSLRLSCAASGIIIQYYAMGWYRQAPGKERELVAAISWSGGSTYYADSVKGRFTISRDNAKNTVYLQMNSLKPEDTAVYYCAARSRSYWPYEGDYWGQGTQVTVSS	low polyreactivity
QDQLEESGGGLVQAGGSLRLSCAASGLTFIQYALGWYRQAPGKERELVAAINSGASTRYADSEKGRFTISRDNAMNTVYLQMNSLKPEDTAVYYCNARLRRYTNRYYKYYYWGQGTLVTVSS	high polyreactivity
QVQHVESGGGLVQAGGSLRLSCAASGRTFGSNAMGWYRQAPGKERELVAAISLRGGRTYYADSVKGRFTISRDNAKNTVYLLMNSLKPEDTAVYYCNAVHYLYGARSRLTYDYWGQGTQVTVSS	high polyreactivity
QVQLVESGGGLVQAGGSLRLSCAASGSTFFGYAMGWYRQAPGKERELVAAIRYNGGRTYYADSVKGRFTISRDNAKNTVYLQMNSLKPEDTAVYYCAAYISYSRTYYYWGQGTQVTVSS	low polyreactivity
QVQLVESGGGLVQAGGSLRLSCAASGRTFVGYVMGWYRQAPGKERELVASITYTGTSTYYADSVKGRFTISRDNAKNTVYLQMNSLKPEDTAVYYCAAQYYLYRRGYIWKYDYWGQGTQVTVSS	high polyreactivity
QVQLVESGGGLVQAGGSLRLSCAASGRIFGGYVMGWYRQAPGKERELVAAINGGGGSTYYADSVKGRFTISRDNAKNTVYLQMNSLKPEDTAVYYCMLVKRSQRKSTIDFDYWGQGTQVTVSS	high polyreactivity
QVQLVESGGGLVQAGGSLRLSCAASGRIFGGYAMGWYRQAPGKERELVAAISSSGGRTYYADSVKGRFTISRDNAKNTVYLQMKSLKPEDTAVYYCNAGAGQRVSGHSFEYWGQGTQVTVSS	high polyreactivity

Sequence	polyreactivity (PSR sort gate)
QVQLVESGGGLVQAGGSLRLSCAASGFIFYYYAMGWYRQAPGKERELVAAITGSGGNTYYADSVKGRFTISRDNEKNSVFFHMNSLKPEDTAVYYCNTGYDRGGDYWGQGTQVTVSS	high polyreactivity
QVQLVESVRGVVQAGGSLRLSCASSVFTFRWYAMGWFRQAPGKESELVADITRHGGSTYYADSVKGRFTISRDNAKNTVYLQMNSLKPEDTAVYYCAADLSWYDWEDDYWGQGTQVTVSS	low polyreactivity
QVQLVESGGGLVQAGGSLRLSCAASASIFDDNAMGWYRQAPGKERELVAGISRGGSTNYADSVKGRFTISRDNAKNTVYLQMNSLKPEDTAVYYCNKRYKPSWTTYDYWGQGTQVTVSS	low polyreactivity
QVQLVESGGGLVQAGGSLRLSCAASGSTFILNAMGWYRQAPGKERELVAAISRSGGNTYYADSVKGRFTISRDIAKNTVYLQMNSLKPEDTAVYYCAATRRSHYYYWGQGTQVTVSS	high polyreactivity
QVQLVESGGGLVQAGGSLRLSCAASGLTLGRYAMGWYRQAPGNERELVAVITGGGSTNYADSVKGRFTISRDNAKNTVYIQLNSLKPADTAVYYCAVRGGIFQTLSTWYRYYYCGQGTQVTVSS	high polyreactivity
QVQLVESGGGLVQAGGSLRLSCAASGSTISRYAMGWYRHAPGKERELVAAISWNGGDTYYADSVKGRFTISRDYAKNTVFLQMNSLKPEDTAVYYCNTPRRITRAGYWAGSRYNYWGQGTQVTVSS	high polyreactivity
QVQLVESGGGLVQAGGRLRLSCAASGNTLRGYAMGWYRPAPGKERELVSAISYSSVNTYYADSVKGRFTISRDNAKNTVYLQMNSLKPEDTAVYYCAADYYYYRRTQYDLRGYPYYYWGQGTQVTVSS	low polyreactivity
QVQLVESGGGLVQAGGSLRLSCAASGGIFLGNAMAWYRQATGKETELVASITRGGDTSYADSVKARFTFSRDNAKNTVYLQMNSLKPEDTAVYYCNADYYSVVEYDYWGQGTQVTVSS	low polyreactivity
QVQLVESGGGLVQAGGSLRLSCAASGSIFVGNAMGWYRQAPGKERELVAAISRGGGSTYYADSVKGRFTISRDNAKNTVYLQMNSLKPEDTAVYYCAAVKYYYGSAYDYWGQGTQVTVSS	high polyreactivity
QVQHVESGGGLVQAGGRLRLSCAASGSIFAWYARGWYIQAPGKEREVVADITHSGGSTYYADSLKGRFTISRDNAKNTVYLQMYSLKPEDTAVSYCVDYWYNDLQSGWEDDYWGQGTQVTVAS	low polyreactivity
QVQLVESGGGLVQAGGSLRLSCAASGITFTQYTMGWYRQARGKQRELVAAISSSGGRTYYADSVKGRYTISRDNAKKTVYLQMNSLKPEDTAVYYCAAAWRRTFDYCGQGTQVTVSS	high polyreactivity
QVQLVESGGGLVQAGGSLRLSCAASGFTFIPNAMGWYRQAPGKERELVAAISTGGSTYYADSVKGRFTISRDNAKNTVYLQMNSLKPEDTAVYYCAAGILVLKLYFSSYDYWGQGTEVTVSS	low polyreactivity
QVQLVESGAGLVQAGGSLRLSCAASGSTFSYYAMGWSRQAPGKERELVAAITSSGGSTYYADSVKGRFTISRDNAKNTVYLQMNSLKQEDTAVYYCNTAYHVPYDYWGQGTQVTVSS	low polyreactivity
QVQLVESVGGLVQAGGSLRLSSAASGRIFSYKVMGWYRQAPGKESELVAAITSNDGSTYYADSVKGRFTISRDNAKNTVYLQMNSLKPVDTADYYCNADYGPVSLNEPFRDDYWGQGTQVTVSS	low polyreactivity
QVQLVESGGGLVQAGGSLRLSCAASGRIFYAYTMGRSRQAPGKERELVAAISGSGSTYYADSVKGRFTISRDNAKNTVYLQMNSLKPEDTAVYYCAADVTGGRKYDYWGQGTQVTVSS	low polyreactivity
QVQIVESGGGLVQAGGSLRLSCAASGRTFNAYAMGWYRPAPGKERELVAAISGNGGSTYYADSVKGRFTISRDNAKNTVYLQMNSLKPEDTAVYYCYKVQRSLLGYNSWGQGTEVTVSS	high polyreactivity
QVQLVESGGGLVQAVGSHRLICAASGSIFPYYAMGWYRQAPGKERELVATITYRGGSTNYADSVKGRFTISRDNAKNTVYLQMNSLKPEDTAVYYCAAEYYSIRYGPHSIEVYGMDYWGQGTHVTVSS	low polyreactivity
QVQLVESGGGLVQAGGSLSLSCAASGFTFYYYAMGWYRQAPGKERELVAAISTRDGNTYYADSVKGRFTISRDNAKNTVYLQMNSLKPEDTAVYYCAADYFRYYPYDYWGQGTQVTVSS	low polyreactivity
QVQLVESGGGLVQAGGSLRLSCAASGSTFYRYAMGWYRQAPGKERELVAAISSSGGSTYYADSVKGRFTISRDNAKNTVYLQMNSLKPEDTAVYYCNAALTPYDYDYWGQGTQVTVSS	low polyreactivity
QVQLVESGGGLVQAGGSLRLSCAASGRTFSYYAMGWYRQAPGKERELGAANSGGGRTNYADSVKGRFTISRDNAKNTVYLQMNSLKPEDTAVYYCAAGASRKYQYYSRSYDYWGQGTQVTVSS	high polyreactivity
QVQLVESGGGLVQAGGSLRLSCAASGSIFEENAMGWYRQAPGKERELVAAINTRGGSTYYADSVKGRFTLSRDNAKNTVYLQMNSLKPEDTAVYYCALISRYYYWGQGTQVTVSS	high polyreactivity

Reference: the nanobody polyreactivity screen of Harvey et al. (2022)
